Experimental data published in patent US20110011742, “METHOD FOR THE PURIFICATION OF BIOLOGICAL MACROMOLECULES” (published 2011).

B1: YZ-7 (NF-kb probe) (dsDNA)
DNA 1: TCCTAGCTTCAGAGGGGACTTTCCGAGAGGACCTGAAGAAATGGTTTTGAATCAT
DNA 2: CCTCTCGGAAAGTCCCCTCTGAAGCTAGGA
B2: YZ-11 (ER-alpha probe) (dsDNA)
DNA 1: CCTGCCAGGTCGCGCTGCCCTCCTTCTACCATGCCTTAGGAGAATTGTTTTGTTT
DNA 2: GGTAGAAGGAGGGCAGCGCGACCTGGCAGG

Experiments:
Sp1 [1] = target: T1, Sp1 (UniProt P08047 P08047:2-785); assay: probe mixture, gel-separated complex hybridised to microarray; signal 0 at the tag-complementary spot Y-14 (Y-7t also 0); room temperature 30 min; conditions: tags: Promega recombinant; label: 5'-Cy3 on YZ-7f (microarray); partially double-stranded, 3' single-strand tag on YZ-7f
Protocol: (§1) The Sp1 protein was mixed with a group of Cy3 labeled probes (YZ-7, YZ-9 and YZ-11) at room temperature for 30 minutes and then the protein/DNA complex was separated on the polyacrylamide column using the separation method described in Example 1. The collected protein/DNA complex was concentrated, the buffer changed to 5×SSC, 0.1% SDS, and the DNA hybridized to a microarray slide containing oligonucleotide DNA sequences shown in Table 2. Small amounts of YZ-2 and YZ-4 were added (shown in Table 3 and complementary to the sequences of YZ-1 and YZ-3). These sequences, shown in Table 3, serve as a positive control and reference signal. Only the Sp1 and control probes yielded positive signals (see Table 4). […] The microarray results (shown in Table 4) was consistent with the result from the gel shift assay.

Sp1 [2] = target: T1, Sp1; assay: probe mixture, gel-separated complex hybridised to microarray; signal 0 at Y-11t; room temperature 30 min; conditions: tags: Promega recombinant; label: IRDye 700 (gel) or 5'-Cy3 on YZ-11f (microarray); partially double-stranded, 3' single-strand tag on YZ-11f
Protocol: as §1

T1 sequence (P08047 2-785, one chain of several): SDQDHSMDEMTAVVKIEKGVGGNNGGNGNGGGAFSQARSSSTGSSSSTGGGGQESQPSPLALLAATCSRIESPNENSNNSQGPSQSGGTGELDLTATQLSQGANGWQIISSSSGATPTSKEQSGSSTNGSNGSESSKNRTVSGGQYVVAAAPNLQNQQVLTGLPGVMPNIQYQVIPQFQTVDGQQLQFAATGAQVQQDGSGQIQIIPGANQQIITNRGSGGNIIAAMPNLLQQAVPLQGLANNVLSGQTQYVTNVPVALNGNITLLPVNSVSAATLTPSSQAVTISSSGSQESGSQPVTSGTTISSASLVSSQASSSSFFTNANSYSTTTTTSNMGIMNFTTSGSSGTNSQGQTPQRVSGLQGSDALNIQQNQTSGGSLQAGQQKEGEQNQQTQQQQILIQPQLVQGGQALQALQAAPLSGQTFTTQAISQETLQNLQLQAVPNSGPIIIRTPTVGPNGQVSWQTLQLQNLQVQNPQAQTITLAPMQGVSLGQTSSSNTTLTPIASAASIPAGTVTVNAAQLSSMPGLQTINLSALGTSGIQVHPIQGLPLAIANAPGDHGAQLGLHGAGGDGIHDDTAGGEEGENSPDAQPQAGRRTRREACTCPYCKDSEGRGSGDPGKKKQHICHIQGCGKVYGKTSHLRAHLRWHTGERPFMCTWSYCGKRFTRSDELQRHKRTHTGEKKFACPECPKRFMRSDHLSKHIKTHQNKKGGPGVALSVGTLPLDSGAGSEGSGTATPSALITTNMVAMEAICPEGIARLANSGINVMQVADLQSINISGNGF

Row | Binder | binding result (Sp1 [1]) | binding result (Sp1 [2])
1 | B1 | no binding | –
2 | B2 | – | no binding
